From patent US9393309B2, “Self-gelatinizable nucleic acid” (Kyoto University, priority 2011, dated 2016) come the findings set out here.

Data set [1] deals with RAW264.7 cells. Nature of the data set: Release of TNF-α from RAW264.7 cells (ELISA). The format is cell-based, murine. The conditions noted are these: 0.5, 1 or 2 μg/ml, 8 hours. The procedure: In a RPMI1640 medium to which 10% heat inactivated FBS, 0.15% sodium bicarbonate, 100 units/ml penicillin, […] streptomycin and 2 mML-glutamine were added, murine macrophage-like RAW264.7 cells were proliferated in humidified air containing 5% CO2 at 37° C. Subsequently, cells were seeded on a 24-well or 96-well culture plate at a density of 5×10^5 cells/well, and cultured for 24 hours before use.
The RAW264.7 cells were seeded on a 24-well plate at a density of 2.5×10^5 cells/well, and incubated for 24 hours before treatment. Then, ssDNA, dsDNA, or several kinds of polypodnas diluted in 0.5 ml of Opti-MEM were added to the cells at a final concentration of 0.5, 1 or 2 μg/ml. The cells were incubated for 8 hours, the supernatant was recovered and stored at −70° C. before use. The concentrations of TNF-α and IL-6 in the supernatant were measured by Enzyme-Linked Immunosorbent Assay (ELISA) using an OptEIA™ set (Pharmingen, San Diego, Calif., USA).
The same experiment as in Example 22 was carried out except that each poolypodna preparation was prepared in the same manner as in Example 1 by using the sequences in Table 1. However, the added DNA was equal amount in each case.

The nature of data set [2]: Release of encapsulated OVA from gel. The format is physicochemical. Conditions: DNA 0.5 mM. The procedure:
By controlling the nature and salt concentration of protruding ends of Tetrapodna, the change of the releasing rate of an encapsulated compound in a gel was examined. Specifically, Tetrapodna (4-18-18) (SEQ ID NOs.: 2, 4, 5 and 6) including a cohesive protruding end and Tetrapodna (4-18-18) (SEQ ID NOs.: 58, 59, 60 and 61) as a control including a non-cohesive protruding end were used. In an aqueous solution of Tetrapodna which had been prepared such that the DNA concentration was 0.5 mM, the NaCl concentration was adjusted to 5 mM or 150 mM. When the NaCl concentration was increased, egg albumin (OVA, concentration of 2.5 μg/μl) was added as an encapsulated substance to cause gelation, and then the percentage of OVA released from the gel with the passage of time was measured.

Data set [3] is described as follows: Gel formation in a living body after subcutaneous injection of sol. The conditions noted are these: total DNA 2 mM, NaCl 5 mM, back of mouse. It is filed as in vivo. The text has this:
The hydrogel produced in Example 1 was able to be prepared in a sol state by appropriately adjusting conditions. Therefore, the hydrogel was able to be administered in a living body by injection. […] Thus, it was confirmed that a gel is formed in a living body only by preparing the hydrogel in accordance with the present invention in a sol state and administering the hydrogel to a living body.

Data set [4] is described as follows: Evaluation of gelation at various DNA concentrations and NaCl concentrations. The format is physicochemical. Details: key: ◯: the mark “∘” is given to cases in which gelation was observed; X: the mark “x” is given to cases of a solution state (sol-state). The procedure:
[…] The gel formation and the gel strength were measured by a gel strength analyzer (gel strength meter, Nakayamadenki Co., Ltd, Osaka).
Specifically, by changing the DNA concentrations of an aqueous solution of Tripodona (4-18-18) (X=4) (SEQ ID NOs.: 1, 2 and 3), Tetrapodna (4-18-18) (X=4) (SEQ ID NOs.: 2, 4, 5 and 6), Hexapodna (4-18-18) (X=4) (SEQ ID NOs.: 2, 3, 4, 7, 9 and 10) and Tetrapodna (8-16-16) (X=8) (SEQ ID NOs.: 22, 23, 24 and 25) as shown in the lines of Table 4, and by changing the NaCl concentration as shown in the rows of Table 4, whether or not a gel is formed at various DNA concentrations and NaCl concentrations was evaluated. The results are shown such that the mark “∘” is given to cases in which gelation was observed, and the mark “x” is given to cases of a solution state (sol-state).

Data set [5] in a line: Temperature conditions for gel formation. The format is physicochemical. Conditions: NaCl 150 mM. The procedure:
Furthermore, we investigated a possibility that temperature conditions are also involved in gelation. Tetrapodna (4-18-18) (SEQ ID NOs.: 2, 4, 5 and 6), Hexapodna (4-18-18) (SEQ ID NOs.: 2, 3, 4, 7, 9 and 10) and Tetrapodna (8-16-16) (SEQ ID NOs.: 22, 23, 24 and 25) were used to examine the temperature conditions for allowing a gel be present or a sol to be present by fixing the NaCl concentration at 150 mM and changing the DNA concentration variously.

The nature of data set [6]: Formation of hydrogel from nucleic acid units without ligase. The conditions noted are these: without DNA ligase. It is filed as physicochemical. The procedure: A NaCl solution was added to an ODN solution (polypodna) such that the final Na^+ concentration was 5 to 150 mM. The gel formation and the gel strength were measured by a gel strength analyzer (gel strength meter, Nakayamadenki Co., Ltd, Osaka).
A structure to be a hydrogel (a nucleic acid monomer and an estimated nucleic acid unit) in conditions at room temperature, at 5 mM to 150 mM sodium chloride concentration (150 mM is substantially physiological concentration), and not containing a DNA ligase was elucidated. […] For convenience, nucleic acid units estimated to be formed according to the number of nucleic acid monomers capable of constituting the nucleic acid unit were represented by xxxpodna (xxxpod-like structure forming nucleic acid, xxx is substituted by tri (3), tetra (4) and the like, according to the number of nucleic acid monomers capable of constituting the nucleic acid unit). In Table 2 described below, xxxpodna is an estimated nucleic acid unit, and each of xxx-Y-N is a nucleic acid monomer that can be a constituent element of the nucleic acid unit (xxxpodna) which is mentioned above thereof. When the descriptions of Ys are different from each other, different nucleic acid units can be formed. N denotes numbering of nucleic acid monomers constituting each of the estimated nucleic acid units.
Unlike (1-1) described above, gelation can be controlled by using a nucleic acid monomer including cohesive protruding ends which are not attached to themselves (that is, not palindrome sequence).

The nature of data set [7]: Percentage of remaining gels with the passage of time. It is filed as physicochemical. Conditions: DNA 0.5 mM, NaCl 150 mM. The procedure: Gels were formed by adjusting the NaCl concentration at 150 mM in an aqueous solution containing Tetrapodna (12-14-14) (SEQ ID NOs.: 30, 31, 32 and 33) at a DNA concentration of 0.1 mM, 0.25 mM or 0.5 mM, and the percentage of the remaining gels was measured with the passage of time. The results are shown in a graph in the left upper side of FIG. 17.
Gels were formed in conditions at a certain DNA concentration (0.5 mM) and a certain NaCl concentration (150 mM), and the percentage of the remaining gels was measured with the passage of time by using Tetrapodna (respectively, SEQ ID NOs.: 2, 4, 5 and 6, SEQ ID NOs.: 18, 19, 20 and 21, SEQ ID NOs.: 22, 23, 24 and 25, SEQ ID NOs.: 26, 27, 28 and 29, as well as SEQ ID NOs.: 30, 31, 32 and 33) having various lengths of the cohesive protruding end (4, 6, 8, 10 or 12 bases). The results are shown in a graph in the left lower side of FIG. 17. […] When 12 hours had passed, the percentage of the remaining gels became about 50%.
Gels were formed by variously changing the NaCl concentrations (5 mM, 50 mM, 100 mM or 150 mM) of an aqueous solution containing Tetrapodna (12-14-14) (SEQ ID NOs.: 30, 31, 32 and 33) at a DNA concentration of 0.5 mM, and the percentage of the remaining gels was measured with the passage of time. The results are shown in a graph in the right upper side of FIG. 17. […] At a low salt concentration (5 mM), almost all the formed gels became in a sol state when about 6 hours had passed. When the salt concentration was increased to 50 mM, solation tendency was weakened, a change from a gel into a sol occurred moderately (about 40% when 12 hours had passed).
The percentage of the remaining gels was measured with the passage of time in the same manner as in (8-3) except that Tetrapodna (4-18-18) (SEQ ID NOs.: 2, 4, 5 and 6) was used instead of Tetrapodna (12-14-14) (SEQ ID NOs.: 30, 31, 32 and 33). The results are shown in a graph in the right lower side of FIG. 17. […] In (8-3), Tetrapodna (12-14-14) (the length of the cohesive protruding end is 12 bases) was used. In (8-4), Tetrapodna (4-18-18) (the length of the cohesive protruding end is 4 bases) was used.

Data set [8] has as its system mouse dendritic cell DC2.4. Nature of the data set: Stimulation of dendritic cells by gel. It is filed as cell-based. Conditions: gel brought into contact with DC2.4.

Numbering of substitutions follows the chain as printed.

“ssDNA36: single strand 36 mer ODN, SEQ ID No. 108 (DNA TCGCTGACGTTGCAGACATCACGTTGACGCTGTCGA; unmodified DNA) [reference compound]”: the TNF-α release result in data set [1] is “the TNF-α release hardly occurred”.

B1: control Tetrapodna: Tetrapodna (4-18-18), SEQ ID NOs.: 58, 59, 60 and 61, non-cohesive protruding end, control (nucleic acid)
DNA 1: AGTCTCGCTGACGTTGCAGACATCACGTTGACGCTGTCGA
DNA 2: AGTCTCGACAGCGTCAACGTGAAACGTGAAGCGTCTGCGA
DNA 3: AGTCTCGCAGACGCTTCACGTTGCAGACAGACGTTGACGA
DNA 4: AGTCTCGTCAACGTCTGTCTGCTGTCTGCAACGTCAGCGA
modifications: unmodified DNA
On to B1, for which the gelation entry in data set [2] (NaCl 5 mM or 150 mM) is reported as “Gelation hardly found”. Besides, the “percentage of OVA released from the first” value in data set [2] (OVA 2.5 μg/μl) was ~100%. Moreover, the “gel formation in a living body” value in data set [3] is reported as “a gel was not formed in a living body”.

B2: Hexapodna(4-18-18): six ODNs, SEQ ID NOs.: 2, 3, 4, 7, 9 and 10, 4-base cohesive protruding end (nucleic acid)
DNA 1: B1 DNA 2 with G2C, T3G, C4T
DNA 2: ACGTTCGCAGACGCTTCACGTTGAGCACAGACGTTGACGA
DNA 3: B1 DNA 1 with G2C, T3G, C4T
DNA 4: ACGTTCGTCAACGTCTGTGCTCGCAGCGTCTTAACGTCGA
DNA 5: ACGTTCGACGTTAAGACGCTGCAGACGTTCAGGACTACGA
DNA 6: ACGTTCGTAGTCCTGAACGTCTTGTCTGCAACGTCAGCGA
modifications: unmodified DNA
As for B2, the gelation result in data set [4] (Na+ 2 mM, DNA 0.8 mM) is reported as “◯”; in data set [4] (Na+ 20 mM, DNA 0.7 mM), “X”; in data set [4] (Na+ 50 mM, DNA 0.5 mM) it was “X”; in data set [4] (Na+ 50 mM, DNA 0.6 mM) it was “X”; in data set [4] (Na+ 50 mM, DNA 0.7 mM), “◯”; in data set [4] (Na+ 100 mM, DNA 0.4 mM), “X”. The gelation entry in data set [4] (Na+ 100 mM, DNA 0.5 mM) was “◯”; in data set [4] (Na+ 100 mM, DNA 0.6 mM), “◯”; in data set [4] (Na+ 150 mM, DNA 0.3 mM), “X”; in data set [4] (Na+ 150 mM, DNA 0.4 mM), “◯”. Also, the “temperature at which gel is present” value was “gel at 65 °C” in data set [5] (DNA concentration 1.0 mM) and “gel at 55 °C” in data set [5] (DNA concentration 0.3-0.8 mM). Further, the results for the “temperature at which sol is present” value in data set [5] (DNA concentration 1.0 mM) and in data set [5] (DNA concentration 0.3-0.8 mM) were “sol at 75 °C” and “sol at 65 °C”, respectively. In addition, the gel formation entry in data set [6] is on record as “gels can be prepared”.

B3: Tetrapodna(8-16-16): four ODNs, SEQ ID NOs.: 22, 23, 24 and 25, 8-base cohesive protruding end (nucleic acid)
DNA 1: ACGTACGTTAGCACGACATCAGCGTCTGACGCTTCGTCGA
DNA 2: ACGTACGTTCGACGAAGCGTCAGATCTCGTCAACGCTGCA
DNA 3: ACGTACGTTGCAGCGTTGACGAGACAGACGCTTGACGCTA
DNA 4: ACGTACGTTAGCGTCAAGCGTCTGCGCTGATGTCGTGCTA
modifications: unmodified DNA
As to B3, the gelation result in data set [4] (Na+ 2 mM, DNA 0.6 mM) was “◯”; in data set [4] (Na+ 10 mM, DNA 0.5 mM) it was “X”; in data set [4] (Na+ 20 mM, DNA 0.5 mM), “◯”. Also, the “temperature at which gel is present” value in data set [5] (DNA concentration 0.5 mM) was “gel at 55 °C”. Besides, in data set [5] (DNA concentration 0.5 mM), the “temperature at which sol is present” value was “sol at 75 °C”. Besides, in data set [6], the gel formation result was “gels can be prepared”. Further, in data set [7], the “initial percentage of gels” value was “about 100%”. Moreover, in data set [7], the “percentage of the remaining gels with the passage of time” value is “decreased with the passage of time only slightly”.

B4: Tetrapodna (4-18-18) which does not contain a CpG motif: four ODNs, SEQ ID NOs.: 14, 15, 16 and 17, not containing CpG (nucleic acid)
DNA 1: AGCTAGGCACCGTAGTCAATCGCCGATGTGTCCAAAGCCT
DNA 2: AGCTAGGCTTTGGACACATCGGTGCTCCTACCGTACTCCT
DNA 3: AGCTAGGAGTACGGTAGGAGCAGTTTCGGCATGTCCACCT
DNA 4: AGCTAGGTGGACATGCCGAAACCGATTGACTACGGTGCCT
modifications: DNA, all phosphodiester, methylation of C not given here
B4: the “immunological stimulation of dendritic cell” value in data set [8] is on record as “did not immunologically stimulate a mouse dendritic cell”.
